The source of these data is the Human Domainome abundance scans (Beltran et al. 2025).

± gives the uncertainty stated by the source.

B1: Chromodomain-helicase-DNA-binding protein 4, residues 444 to 496; numbered along this chain, Q14839 (parent)
chain: EDDHHMEFCRVCKDGGELLCCDTCPSSYHIHCLNPPLPEIPNGEWLCPRCTCP
B2: Protein piccolo, residues 1058 to 1114; numbered along this chain, Q9Y6V0 (parent)
chain: TCPLCKTELNIGSKDPPNFNTCTECKNQVCNLCGFNPTPHLTEIQEWLCLNCQTQRA

In the first data set the parent is B1. Nature of the data set: abundance fitness (aPCA) (normalised: wild type 0, dead -1); higher = more abundant; growth selection in yeast, the domain comes from the species named. The settings on record: Homo sapiens.
For C50H, the abundance fitness is -0.286 ± 0.05. As to C50I, the abundance fitness is -1.08 ± 0.12. Same read-out and setting: in the case of C50V it was -0.791 ± 0.044. Still for that read-out and setting: then C50K, with -0.58 ± 0.1.

For the variant C50P, the abundance fitness was -0.755 ± 0.047.

As for C50N, the abundance fitness was -0.46 ± 0.092. Same read-out and setting: in the case of C50D it was -0.633 ± 0.05; in that of C50M, -0.986 ± 0.052; in that of C50S, -0.622 ± 0.054. Still for that read-out and setting: then C50G, with -0.727 ± 0.059. Regarding C50T, the abundance fitness is -0.78 ± 0.051. On the same count and under the same terms, then C50L, with -0.845 ± 0.043.

With C50Y, the abundance fitness is -1.02 ± 0.13. As for C50E, the abundance fitness is -0.708 ± 0.095. Same read-out and setting: in the case of C50W it was -1.11 ± 0.1; in that of R49A, 0.019 ± 0.055; in that of R49S, -0.095 ± 0.047.

Turning to R49Y, the abundance fitness was -0.201 ± 0.086. Same read-out and setting: then R49M, with -0.101 ± 0.054. Take R49Q: the abundance fitness was 0.034 ± 0.043. For the variant R49F, the abundance fitness was -0.089 ± 0.06. The same measure, in the same setting: in the case of R49L it was -0.101 ± 0.044; in that of R49N, 0.04 ± 0.063. The same measure, in the same setting: then R49D, with 0.145 ± 0.055. Take R49H: the abundance fitness turned out to be 0.047 ± 0.053. On the same count and under the same terms, in the case of R49E it was -0.108 ± 0.079; in that of R49I, 0.016 ± 0.072; in that of R49W, -0.132 ± 0.051. The same measure, in the same setting: then R49P, with -0.187 ± 0.049; and R49T, with 0.043 ± 0.047. On the same count and under the same terms, in the case of R49V it was 0.006 ± 0.051; in that of R49G, 0.069 ± 0.041.

Regarding E39K, the abundance fitness turned out to be 0.121 ± 0.08. On to E39P, for which the abundance fitness is -0.152 ± 0.049. With E39R, the abundance fitness was -0.09 ± 0.057. The same measure, in the same setting: in the case of E39A it was 0.011 ± 0.073; in that of E39T, 0.025 ± 0.051; in that of E39M, -0.095 ± 0.071. The same measure, in the same setting: then E39Y, with -0.201 ± 0.068; and E39I, with -0.026 ± 0.045; and E39Q, with -0.052 ± 0.074. Regarding E39L, the abundance fitness is -0.189 ± 0.048. Same read-out and setting: then E39W, with -0.35 ± 0.086. On the same count and under the same terms, then E39G, with -0.056 ± 0.06; and E39N, with 0.026 ± 0.058.

As for E39C, the abundance fitness was -0.178 ± 0.057. Still for that read-out and setting: then E39H, with -0.132 ± 0.058. The same measure, in the same setting: then E39V, with -0.025 ± 0.05. Regarding E39F, the abundance fitness was -0.056 ± 0.063.

For the variant E39D, the abundance fitness was -0.292 ± 0.099.

E39S: the abundance fitness was found to be 0.021 ± 0.044. Same read-out and setting: then P38D, with -0.031 ± 0.064; and P38S, with -0.075 ± 0.045. On the same count and under the same terms, in the case of P38R it was -0.046 ± 0.049; in that of P38F, -0.153 ± 0.054; in that of P38W, -0.172 ± 0.08. On the same count and under the same terms, in the case of P38L it was -0.115 ± 0.046.

For P38V, the abundance fitness was -0.113 ± 0.058. Still for that read-out and setting: then P38A, with -0.014 ± 0.06.

Take P38K: the abundance fitness turned out to be 0.088 ± 0.068. As to P38E, the abundance fitness was -0.096 ± 0.099. P38N: the abundance fitness came to 0.065 ± 0.066.

In the case of P38G, the abundance fitness is -0.196 ± 0.078. As for P38Q, the abundance fitness was determined as 0.085 ± 0.062. Still for that read-out and setting: then P38H, with -0.008 ± 0.061. The same measure, in the same setting: in the case of P38T it was -0.003 ± 0.05; in that of P38M, -0.082 ± 0.043; in that of P38I, -0.059 ± 0.051. On the same count and under the same terms, in the case of G43A it was -0.079 ± 0.043.

Consider G43I, for which the abundance fitness is -0.144 ± 0.047. Still for that read-out and setting: in the case of G43Q it was -0.032 ± 0.074; in that of G43H, -0.13 ± 0.067. Take G43F: the abundance fitness was -0.188 ± 0.058. Still for that read-out and setting: in the case of G43D it was -0.151 ± 0.057; in that of G43V, -0.075 ± 0.053; in that of G43L, -0.201 ± 0.049. The same measure, in the same setting: in the case of G43K it was 0.03 ± 0.07; in that of G43E, -0.07 ± 0.047. On the same count and under the same terms, in the case of G43M it was -0.195 ± 0.067. For the variant G43S, the abundance fitness is -0.061 ± 0.05. Take G43P: the abundance fitness is -0.287 ± 0.058. Still for that read-out and setting: then G43N, with -0.068 ± 0.078. Consider G43C, for which the abundance fitness is -0.16 ± 0.054.

For the variant G43R, the abundance fitness was -0.044 ± 0.059.

In the case of L37R, the abundance fitness is -0.233 ± 0.051. L37Y: the abundance fitness was -0.274 ± 0.057. Consider L37S, for which the abundance fitness was -0.194 ± 0.042.

For the variant L37W, the abundance fitness was -0.248 ± 0.063. For L37V, the abundance fitness is -0.066 ± 0.053. On the same count and under the same terms, then L37T, with -0.23 ± 0.055; and T51P, with 0.031 ± 0.046.

Consider T51F, for which the abundance fitness came out at 0.048 ± 0.077. As to T51K, the abundance fitness is -0.051 ± 0.082. The same measure, in the same setting: in the case of T51M it was -0.097 ± 0.056; in that of T51E, 0.074 ± 0.074; in that of T51G, -0.136 ± 0.042. Same read-out and setting: in the case of T51W it was -0.12 ± 0.06.

In the case of T51R, the abundance fitness was -0.073 ± 0.053. Turning to T51H, the abundance fitness was -0.169 ± 0.08. Take T51V: the abundance fitness is -0.048 ± 0.05.

T51N: the abundance fitness turned out to be 0.12 ± 0.072.

Turning to T51S, the abundance fitness was 0.013 ± 0.056. On the same count and under the same terms, in the case of T51C it was -0.151 ± 0.076; in that of T51L, -0.003 ± 0.046; in that of T51Q, -0.03 ± 0.061.

Turning to T51Y, the abundance fitness was -0.171 ± 0.072. The same measure, in the same setting: in the case of T51D it was 0.152 ± 0.083; in that of C52E, 0.489 ± 0.12. C52T: the abundance fitness amounted to 0.288 ± 0.13. In the case of C52S, the abundance fitness is -0.002 ± 0.11. Same read-out and setting: then C52L, with 0 ± 0.11. Still for that read-out and setting: in the case of C52W it was -0.033 ± 0.14; in that of C52V, 0.032 ± 0.091; in that of C52I, -0.189 ± 0.18.

On to C52Q, for which the abundance fitness came out at 0.145 ± 0.068. Same read-out and setting: then C52M, with 0.433 ± 0.11; and C52H, with 0.096 ± 0.16. In the case of C52G, the abundance fitness came out at 0.294 ± 0.081. On the same count and under the same terms, in the case of C52P it was -0.667 ± 0.34; in that of C52N, -0.161 ± 0.16. Still for that read-out and setting: in the case of C52D it was -0.218 ± 0.17. On to C52F, for which the abundance fitness was -0.358 ± 0.23. Still for that read-out and setting: in the case of C52Y it was -0.019 ± 0.097.

The variants in the next data set derive from B2. The description is as above. The settings on record: Homo sapiens.
For MCPLCKTELNIGSKDPPNFNTCTECKNQVCNLCGFNPTPHLTEIQEWLCLNCQTQRA [T1M], the abundance fitness was -0.031 ± 0.18. As to RCPLCKTELNIGSKDPPNFNTCTECKNQVCNLCGFNPTPHLTEIQEWLCLNCQTQRA [T1R], the abundance fitness was -0.21 ± 0.25. On to VCPLCKTELNIGSKDPPNFNTCTECKNQVCNLCGFNPTPHLTEIQEWLCLNCQTQRA [T1V], for which the abundance fitness was -0.202 ± 0.25. The same measure, in the same setting: then ECPLCKTELNIGSKDPPNFNTCTECKNQVCNLCGFNPTPHLTEIQEWLCLNCQTQRA [T1E], with -0.142 ± 0.46; and ICPLCKTELNIGSKDPPNFNTCTECKNQVCNLCGFNPTPHLTEIQEWLCLNCQTQRA [T1I], with -0.024 ± 0.22.

As for ACPLCKTELNIGSKDPPNFNTCTECKNQVCNLCGFNPTPHLTEIQEWLCLNCQTQRA [T1A], the abundance fitness was -0.534 ± 0.33. Same read-out and setting: then PCPLCKTELNIGSKDPPNFNTCTECKNQVCNLCGFNPTPHLTEIQEWLCLNCQTQRA [T1P], with -0.239 ± 0.36; and LCPLCKTELNIGSKDPPNFNTCTECKNQVCNLCGFNPTPHLTEIQEWLCLNCQTQRA [T1L], with -0.078 ± 0.27. On the same count and under the same terms, then GCPLCKTELNIGSKDPPNFNTCTECKNQVCNLCGFNPTPHLTEIQEWLCLNCQTQRA [T1G], with -0.205 ± 0.27. Same read-out and setting: in the case of KCPLCKTELNIGSKDPPNFNTCTECKNQVCNLCGFNPTPHLTEIQEWLCLNCQTQRA [T1K] it was -0.424 ± 0.49. Turning to SCPLCKTELNIGSKDPPNFNTCTECKNQVCNLCGFNPTPHLTEIQEWLCLNCQTQRA [T1S], the abundance fitness was -0.129 ± 0.18. The same measure, in the same setting: in the case of WCPLCKTELNIGSKDPPNFNTCTECKNQVCNLCGFNPTPHLTEIQEWLCLNCQTQRA [T1W] it was -0.516 ± 0.23.

Regarding TDPLCKTELNIGSKDPPNFNTCTECKNQVCNLCGFNPTPHLTEIQEWLCLNCQTQRA [C2D], the abundance fitness was -0.536 ± 0.18. Consider THPLCKTELNIGSKDPPNFNTCTECKNQVCNLCGFNPTPHLTEIQEWLCLNCQTQRA [C2H], for which the abundance fitness is -0.834 ± 0.26.

Consider TGPLCKTELNIGSKDPPNFNTCTECKNQVCNLCGFNPTPHLTEIQEWLCLNCQTQRA [C2G], for which the abundance fitness is -0.877 ± 0.13. On to TIPLCKTELNIGSKDPPNFNTCTECKNQVCNLCGFNPTPHLTEIQEWLCLNCQTQRA [C2I], for which the abundance fitness is -1.23 ± 0.28. On the same count and under the same terms, in the case of TEPLCKTELNIGSKDPPNFNTCTECKNQVCNLCGFNPTPHLTEIQEWLCLNCQTQRA [C2E] it was -0.557 ± 0.23; in that of TFPLCKTELNIGSKDPPNFNTCTECKNQVCNLCGFNPTPHLTEIQEWLCLNCQTQRA [C2F], -1.11 ± 0.2; in that of TAPLCKTELNIGSKDPPNFNTCTECKNQVCNLCGFNPTPHLTEIQEWLCLNCQTQRA [C2A], -1.3 ± 0.23.
